Experimental data from IntAct's records for PubMed 11168407.

B1: Serine acetyltransferase 3, mitochondrial (Arabidopsis thaliana (Mouse-ear cress)), Q39218 (parent)
chain: MLPVTSRRHFTMSLYMLRSSSPHINHHSFLLPSFVSSKFKHHTLSPPPSPPPPPPMAACIDTCRTGKPQISPRDSSKHHDDESGFRYMNYFRYPDRSSFNGTQTKTLHTRPLLEDLDRDAEVDDVWAKIREEAKSDIAKEPIVSAYYHASIVSQRSLEAALANTLSVKLSNLNLPSNTLFDLFSGVLQGNPDIVESVKLDLLAVKERDPACISYVHCFLHFKGFLACQAHRIAHELWTQDRKILALLIQNRVSEAFAVDFHPGAKIGTGILLDHATAIVIGETAVVGNNVSILHNVTLGGTGKQCGDRHPKIGDGVLIGAGTCILGNITIGEGAKIGAGSVVLKDVPPRTTAVGNPARLLGGKDNPKTHDKIPGLTMDQTSHISEWSDYVI

Variants of: B1
Details: with cyskm_arath OASC

For MLPVTSRRHFTMSLYMLRSSSPHINHHSFLLPSFVSSKFKHHTLSPPPSPPPPPPMAACIDTCRTGKPQISPRDSSKHHDDESGFRYMNYFRYPDRSSFNGTQTKTLHTRPLLEDLDRDAEVDDVWAKIREEAKSDIAKEPIVSAYYHASIVSQRSLEAALANTLSVKLSNLNLPSNTLFDLFSGVLQGNPDIVESVKLDLLAVKERDPACISYVHCFLHFKGFLACQAHRIAHELWTQDRKILALLIQNRVSEAFAVDFHPGAKIGTGILLDHATAIVIGETAVVGNNVSILHNVTLGGTGKQCGDRHPKIGDGVLIGAGTCILGNITIGEGAKIGAGSVVLKDVPPRTTAEGNPARLLGGKDNPKTHDKIPGLTMDQTSHISEWSDYVI [V353E], which “effect of a mutation on the interaction” value is on record?
Its value is “decreasing interaction”.

MLPVTSRRHFTMSLYMLRSSSPHINHHSFLLPSFVSSKFKHHTLSPPPSPPPPPPMAACIDTCRTGKPQISPRDSSKHHDDESGFRYMNYFRYPDRSSFNGTQTKTLHTRPLLEDLDRDAEVDDVWAKIREEAKSDIAKEPIVSAYYHASIVSQRSLEAALANTLSVKLSNLNLPSNTLFDLFSGVLQGNPDIVESVKLDLLAVKERDPACISYVHCFLHFKGFLACQAHRIAHELWTQDRKILALLIQNRVSEAFAVDFHPGAKIGTGILLDHATAIVIGATAVVGNNVSILHNVTLGGTGKQCGDRHPKIGDGVLIGAGTCILGNITIGEGAKIGAGSVVLKDVPPRTTAVGNPARLLGGKDNPKTHDKIPGLTMDQTSHISEWSDYVI [E282A] was tested. Which “effect of a mutation on the interaction” value did it give?
The value was “decreasing interaction”.

Variants of: B1
Details: with cyskm_arath OASC
Remark: another data set of the same source

MLPVTSRRHFTMSLYMLRSSSPHINHHSFLLPSFVSSKFKHHTLSPPPSPPPPPPMAACIDTCRTGKPQISPRDSSKHHDDESGFRYMNYFRYPDRSSFNGTQTKTLHTRPLLEDLDRDAEVDDVWAKIREEAKSDIAKEPIVSAYYHASIVSQRSLEAALANTLSVKLSNLNLPSNTLFDLFSGVLQGNPDIVESVKLDLLAVKERDPACISYVHCFLHFKGFLACQAHRIAHELWTQDRKILALLIQNRVSEAFAVDFHPGAKIGTGILLDHATAIVIGETAVVGNNVSILHNVTLGGTGKQCGDRHPKIGDGVLIGAGTCILGNITIGEGAKIGAGSVVLKDVPPRTTAAGNPARLLGGKDNPKTHDKIPGLTMDQTSHISEWSDYVI [V353A] was tested. Which “effect of a mutation on the interaction” value did it give?
Its value is “disrupting interaction”.

Which “effect of a mutation on the interaction” value does the source give for MLPVTSRRHFTMSLYMLRSSSPHINHHSFLLPSFVSSKFKHHTLSPPPSPPPPPPMAACIDTCRTGKPQISPRDSSKHHDDESGFRYMNYFRYPDRSSFNGTQTKTLHTRPLLEDLDRDAEVDDVWAKIREEAKSDIAKEPIVSAYYHASIVSQRSLEAALANTLSVKLSNLNLPSNTLFDLFSGVLQGNPDIVESVKLDLLAVKERDPACISYVHCFLHFKGFLACQAHRIAHELWTQDRKILALLIQNRVSEAFAVDFHPGAKIGTGILLDHATAIVIGETAVVGNNVSILHNVTLGGTGKQCGDRAPKIGDGVLIGAGTCILGNITIGEGAKIGAGSVVLKDVPPRTTAVGNPARLLGGKDNPKTHDKIPGLTMDQTSHISEWSDYVI [H309A] here?
Its value is “increasing interaction”.
